According to patent US20250270297A1 (DAEGU GYEONGBUK INSTITUTE OF SCIENCE AND TECHNOLOGY, published 2025):

B1: C11 (Fc fusion)
VL: ETTLTQSPGTLSVSPGERVTLSCRASQSVSSYLAWYQQKPGQAPRLLIYGASTRATGIPDRFSGSGSGTDFTLTISRLEPEDFAVYYCQQYGISPLNFGGGTKVEIK
VH: QVQLVQSGAEVKKPGSSVKVSCKASGGTFSSYAISWVRQAPGQGLEWMGGVIPIFGTANYAQKFRGRVTMTTDTSTSTAYMELRSLTSDDTAVYYCASPQGTWSTFLEWQGAFSVWGQGTTVTVSS
B2: C8 (Fc fusion)
VL: QSALTQPASASGSPGQSVTISCTGTSSDVGGYNYVSWYQQHPGKAPKLMIYDVSKRPSGVSDRFSGSKSGNTASLTISGLQAEDGADYYCSSYRRGRTVVFGGGTKLTVL
VH: QVQLQQWGGGLVQPGGSLRLSCAASGFTFSSYAMSWVRQAPGKGLEWVSAISGSGGSTYYADSVKGRFTISRDNSKNTLYLQMNSLRAEDTAVYYCAKNYFGNPRGFDYWGQGTMVTVSS
B3: C32 (Fc fusion)
VL: DIQMTQSPAIMSASPGERVTMTCSASSSIRYIYWYQQKPGSSPRLLIYDTSNVAPGVPFRFSGSGSGTSYSLTINRMEAEDAATYYCQEWSGYPYTFGGGTKVEIKR
VH: QVQLVQSGAEVKKPGSSVKVSCKASGGSFSSYAISWVRQAPGQGLEWMGGIIPIFGTANYAQKFQGRVTITADESTSTAYMELSSLRSEDTAVYYCANLRGGSSHYGMDVWGQGTLVTVSS

Target: T1, rhACE2 (ACRO, Human ACE2/ACEH Protein, His Tag, #AC2-H52H8) (human, UniProt Q9BYF1 18-740)
T1 construct: not shown: His tag
Assay: ELISA, rhACE2 coated at 0.2 ug/well, antibody at 0.02-2.5 ug/ml, anti-human-Fc-HRP, absorbance at 450 nm

T1 sequence (Q9BYF1 18-740 limits assumed): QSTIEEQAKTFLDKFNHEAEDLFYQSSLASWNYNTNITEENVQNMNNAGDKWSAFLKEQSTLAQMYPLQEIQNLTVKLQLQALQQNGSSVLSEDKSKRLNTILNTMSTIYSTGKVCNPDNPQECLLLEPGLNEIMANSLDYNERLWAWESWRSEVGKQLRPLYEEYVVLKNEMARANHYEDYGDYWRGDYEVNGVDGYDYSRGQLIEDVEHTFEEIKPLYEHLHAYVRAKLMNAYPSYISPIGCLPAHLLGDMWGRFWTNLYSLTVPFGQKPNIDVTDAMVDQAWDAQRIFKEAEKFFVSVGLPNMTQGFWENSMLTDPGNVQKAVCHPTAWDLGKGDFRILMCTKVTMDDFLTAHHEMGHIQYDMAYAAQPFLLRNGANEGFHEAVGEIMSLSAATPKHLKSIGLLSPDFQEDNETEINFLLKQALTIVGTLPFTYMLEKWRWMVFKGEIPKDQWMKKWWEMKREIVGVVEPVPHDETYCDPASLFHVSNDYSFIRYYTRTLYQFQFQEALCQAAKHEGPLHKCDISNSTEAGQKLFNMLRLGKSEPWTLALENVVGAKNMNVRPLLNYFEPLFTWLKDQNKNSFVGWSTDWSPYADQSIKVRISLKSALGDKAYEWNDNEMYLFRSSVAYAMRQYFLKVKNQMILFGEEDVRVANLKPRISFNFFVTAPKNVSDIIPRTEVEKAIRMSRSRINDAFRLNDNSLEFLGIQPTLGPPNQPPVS

**Q.** Does B1 bind?
**A.** binds

**Q.** Does B2 bind?
**A.** binds

**Q.** Does B3 bind?
**A.** binds
